Measurements: patent US9862971B2 (BUNDESREPUBLIK DEUTSCHLAND, LETZTVERTRETEN DURCH DEN …, dated 2018)

Target: CD46 (human, UniProt P15529)
Test: cell-based or functional assay

B1: MeV HEdm wildtype (wt) protein (other)
chain: MSPQRDRINAFYKDNPHPKGSRIVINREHLMIDRPYVLLAVLFVMFLSLIGLLAIAGIRLHRAAIYTAEIHKSLSTNLDVTNSIEHQVKDVLTPLFKIIGDEVGLRTPQRFTDLVKFISDKIKFLNPDREYDFRDLTWCINPPERIKLDYDQYCADVAAEELMNALVNSTLLETRTTNQFLAVSKGNCSGPTTIRGQFSNMSLSLLDLYLGRGYNVSSIVTMTSQGMYGGTYLVEKPNLSSKRSELSQLSMYRVFEVGVIRNPGLGAPVFHMTNYLEQPVSNDLSNCMVALGELKLAALCHGEDSITIPYQGSGKGVSFQLVKLGVWKSPTDMQSWVPLSTDDPVIDRLYLSSHRGVIADNQAKWAVPTTRTDDKLRMETCFQQACKGKIQALCENPEWAPLKDNRIPSYGVLSVDLSLTVELKIKIASGFGPLITHGSGMDLYKSNHNNVYWLTIPPMKNLALGVINTLEWIPRFKVSPYLFTVPIKEAGGDCHAPTYLPAEVDGDVKLSSNLVILPGQDLQYVLATYDTSRVEHAVVYYVYSPSRSFSYFYPFRLPIKGVPIELQVECFTWDQKLWCRHFCVLADSESGGHITHSGMVGMGVSCTVTREDGTNRR
titer [t.u./ml] of HIV-1 vector particles on 293T cells, concentrated supernatant: 0 t.u./ml | titer [t.u./ml] of HIV-1 vector particles on U-87MG cells, concentrated supernatant: 0 t.u./ml
